Laboratory results published in patent US20190194317A1 (FARON PHARMACEUTICALS, published 2019).

T1: CLEVER-1 coated on the ELISA plate (competition ELISA, Examples 5 and 10) (human, UniProt Q9NY15 26-1027, limits assumed)
T1 construct: Coated at 1 ug/ml in PBS; also called human Clever-1
T1 sequence (looked up): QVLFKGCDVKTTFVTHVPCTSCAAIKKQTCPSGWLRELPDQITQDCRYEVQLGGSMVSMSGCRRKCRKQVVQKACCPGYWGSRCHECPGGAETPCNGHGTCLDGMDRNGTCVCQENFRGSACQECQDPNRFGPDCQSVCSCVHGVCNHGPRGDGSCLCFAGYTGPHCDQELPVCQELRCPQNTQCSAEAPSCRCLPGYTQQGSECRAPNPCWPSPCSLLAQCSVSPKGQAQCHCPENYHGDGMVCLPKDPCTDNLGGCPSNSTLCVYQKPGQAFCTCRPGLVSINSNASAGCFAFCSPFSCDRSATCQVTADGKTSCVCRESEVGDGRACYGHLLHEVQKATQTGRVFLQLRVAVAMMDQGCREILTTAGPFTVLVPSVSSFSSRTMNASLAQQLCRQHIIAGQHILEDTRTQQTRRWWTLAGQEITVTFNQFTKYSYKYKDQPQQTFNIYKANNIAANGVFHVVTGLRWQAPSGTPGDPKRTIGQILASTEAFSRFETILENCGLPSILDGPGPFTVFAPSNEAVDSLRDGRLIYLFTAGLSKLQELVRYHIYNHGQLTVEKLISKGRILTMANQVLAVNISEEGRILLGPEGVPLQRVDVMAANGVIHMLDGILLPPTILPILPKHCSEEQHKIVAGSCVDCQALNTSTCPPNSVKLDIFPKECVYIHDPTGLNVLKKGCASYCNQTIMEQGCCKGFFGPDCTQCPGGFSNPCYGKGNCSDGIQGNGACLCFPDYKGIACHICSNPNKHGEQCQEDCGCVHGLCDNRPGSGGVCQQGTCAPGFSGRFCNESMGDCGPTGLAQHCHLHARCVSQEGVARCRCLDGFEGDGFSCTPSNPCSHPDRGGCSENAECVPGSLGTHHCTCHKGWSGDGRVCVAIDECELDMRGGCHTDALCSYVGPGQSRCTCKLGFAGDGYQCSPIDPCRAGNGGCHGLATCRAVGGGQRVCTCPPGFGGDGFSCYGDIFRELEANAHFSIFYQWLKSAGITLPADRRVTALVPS


Biological target: T1, CLEVER-1 coated on the ELISA plate …
Experiment: competition ELISA on coated CLEVER-1 against biotinylated mouse 3-372
Method: These were incubated for 1 hour at room temperature on a 96 well Immulon maxisorp plate (Fisher Cat. No. DIS-971-030J) precoated with 1 μg/ml CLEVER-1. […] The reaction was stopped with 3M HCl, absorbance read at 450 nm on a Dynex Technologies MRX TC II plate reader and the binding curves plotted. IC50 values for each antibody were calculated and these were normalized to the IC50 of the chimera which was included on each respective ELISA plate.

Binder	Relative IC50
Composite Human anti-CLEVER-1 antibody VH2/VK2 (antibody, human IgG4, V domains shown) VH: QVTLKESGPTLVKPTQTLTLTCSFSGFSLSTSGMGIGWIRQPSGKALEWLAHIWWDDDKRYNPALKSRLTISKDTSKNQVVLTMTNMDPVDTATYYCARHYGYDPYYAMDYWGQGTLVTVSS VL: QIVLTQSPGTLSLSPGERATMSCTASSSVSSSYLHWYQQKPGKAPKLCIYRTSNLASGVPSRFSGSGSGTDYTLTISSLQPEDFATYYCHQYHRSPPTFGQGTKLEIK	0.95 relative to the chimera on the same plate
Composite Human anti-CLEVER-1 antibody VH4/VK4 (antibody, human IgG4, V domains shown) VH: QVTLKESGPTLVKPTQTLTLTCTFSGFSLSTSGMGIGWIRQPPGKALEWLAHIWWDDDKRYNPALKSRLTISKDTSKNQVVLTMTNMDPVDTATYYCARHYGYDPYYAMDYWGQGTLVTVSS VL: QIVLTQSPGILSLSPGERATMSCTASSSVSSSYLHWYQQKPGKAPKLLIYRTSNLASGVPSRFSGSGSGTDYTLTISSLQAEDFATYYCHQYHRSPPTFGQGTKLEIK	1.2 relative to the chimera on the same plate
Composite Human anti-CLEVER-1 antibody VH3/VK4 (antibody, human IgG4, V domains shown) VH: QVTLKESGPTLVKPTQTLTLTCSFSGFSLSTSGMGIGWIRQPPGKALEWLAHIWWDDDKRYNPALKSRLTISKDTSKNQVVLTMTNMDPVDTATYYCARHYGYDPYYAMDYWGQGTLVTVSS VL: QIVLTQSPGILSLSPGERATMSCTASSSVSSSYLHWYQQKPGKAPKLLIYRTSNLASGVPSRFSGSGSGTDYTLTISSLQAEDFATYYCHQYHRSPPTFGQGTKLEIK	0.47 relative to the chimera on the same plate
humanized anti-CLEVER-1 antibody FAR02 VH3/VK5 (antibody, V domains shown, Named as a potential lead; also called FAR02 VH3A/K5) VH: QVTLKESGPTLVKPTQTLTLTCSFSGFSLSTSGMGIGWIRQPPGKALEWLAHIWWDDDKRYNPALKSRLTISKDTSKNQVVLTMTNMDPVDTATYYCARHYGYDPYYAMDYWGQGTLVTVSS VL: EIVLTQSPGTLSLSPGERATLSCTASSSVSSSYLHWYQQKPGKAPKLLIYRTSNLASGVPSRFSGSGSGTDYTLTISSLQPEDFATYYCHQYHRSPPTFGQGTKLEIK	0.42 relative to the chimera on the same plate
Composite Human anti-CLEVER-1 antibody VH1/VK3 (antibody, human IgG4, V domains shown) VH: QVTLKESGPTIVKPTQTLTLTCSFSGFSLNTSGMGIGWIRQPSGKALEWLAHIWWDDDKRYNPALKSRLTISKDTSKNQVVLTMTNMDPVDTATYYCARHYGYDPYYAMDYWGQGTSVTVSS VL: EIVLTQSPGTLSLSPGERATMSCTASSSVSSSYLHWYQQKPGKAPKLCIYRTSNLASGVPSRFSGSGSGTDYTLTISSLQPEDFATYYCHQYHRSPPTFGQGTKLEIK	1.63 relative to the chimera on the same plate
Composite Human anti-CLEVER-1 antibody VH3/VK2 (antibody, human IgG4, V domains shown) VH: QVTLKESGPTLVKPTQTLTLTCSFSGFSLSTSGMGIGWIRQPPGKALEWLAHIWWDDDKRYNPALKSRLTISKDTSKNQVVLTMTNMDPVDTATYYCARHYGYDPYYAMDYWGQGTLVTVSS VL: QIVLTQSPGTLSLSPGERATMSCTASSSVSSSYLHWYQQKPGKAPKLCIYRTSNLASGVPSRFSGSGSGTDYTLTISSLQPEDFATYYCHQYHRSPPTFGQGTKLEIK	0.51 relative to the chimera on the same plate
Composite Human anti-CLEVER-1 antibody VH4/VK2 (antibody, human IgG4, V domains shown) VH: QVTLKESGPTLVKPTQTLTLTCTFSGFSLSTSGMGIGWIRQPPGKALEWLAHIWWDDDKRYNPALKSRLTISKDTSKNQVVLTMTNMDPVDTATYYCARHYGYDPYYAMDYWGQGTLVTVSS VL: QIVLTQSPGTLSLSPGERATMSCTASSSVSSSYLHWYQQKPGKAPKLCIYRTSNLASGVPSRFSGSGSGTDYTLTISSLQPEDFATYYCHQYHRSPPTFGQGTKLEIK	0.9 relative to the chimera on the same plate
Composite Human anti-CLEVER-1 antibody VH1/VK1 (antibody, human IgG4, V domains shown) VH: QVTLKESGPTIVKPTQTLTLTCSFSGFSLNTSGMGIGWIRQPSGKALEWLAHIWWDDDKRYNPALKSRLTISKDTSKNQVVLTMTNMDPVDTATYYCARHYGYDPYYAMDYWGQGTSVTVSS VL: QIVLTQSPGILSLSPGERATMSCTASSSVSSSYLHWYQQKPGKAPKLCIYRTSNLASGVPSRFSGSGSGTDYTLTISSLQAEDFATYYCHQYHRSPPTFGQGTKLEIK	0.84 relative to the chimera on the same plate
Composite Human anti-CLEVER-1 antibody VH3/VK1 (antibody, human IgG4, V domains shown) VH: QVTLKESGPTLVKPTQTLTLTCSFSGFSLSTSGMGIGWIRQPPGKALEWLAHIWWDDDKRYNPALKSRLTISKDTSKNQVVLTMTNMDPVDTATYYCARHYGYDPYYAMDYWGQGTLVTVSS VL: QIVLTQSPGILSLSPGERATMSCTASSSVSSSYLHWYQQKPGKAPKLCIYRTSNLASGVPSRFSGSGSGTDYTLTISSLQAEDFATYYCHQYHRSPPTFGQGTKLEIK	0.76 relative to the chimera on the same plate
Composite Human anti-CLEVER-1 antibody VH4/VK1 (antibody, human IgG4, V domains shown) VH: QVTLKESGPTLVKPTQTLTLTCTFSGFSLSTSGMGIGWIRQPPGKALEWLAHIWWDDDKRYNPALKSRLTISKDTSKNQVVLTMTNMDPVDTATYYCARHYGYDPYYAMDYWGQGTLVTVSS VL: QIVLTQSPGILSLSPGERATMSCTASSSVSSSYLHWYQQKPGKAPKLCIYRTSNLASGVPSRFSGSGSGTDYTLTISSLQAEDFATYYCHQYHRSPPTFGQGTKLEIK	1.86 relative to the chimera on the same plate
Composite Human anti-CLEVER-1 antibody VH4/VK5 (antibody, human IgG4, V domains shown, Named as a potential lead) VH: QVTLKESGPTLVKPTQTLTLTCTFSGFSLSTSGMGIGWIRQPPGKALEWLAHIWWDDDKRYNPALKSRLTISKDTSKNQVVLTMTNMDPVDTATYYCARHYGYDPYYAMDYWGQGTLVTVSS VL: EIVLTQSPGTLSLSPGERATLSCTASSSVSSSYLHWYQQKPGKAPKLLIYRTSNLASGVPSRFSGSGSGTDYTLTISSLQPEDFATYYCHQYHRSPPTFGQGTKLEIK	0.46 relative to the chimera on the same plate
Composite Human anti-CLEVER-1 antibody VH2/VK1 (antibody, human IgG4, V domains shown) VH: QVTLKESGPTLVKPTQTLTLTCSFSGFSLSTSGMGIGWIRQPSGKALEWLAHIWWDDDKRYNPALKSRLTISKDTSKNQVVLTMTNMDPVDTATYYCARHYGYDPYYAMDYWGQGTLVTVSS VL: QIVLTQSPGILSLSPGERATMSCTASSSVSSSYLHWYQQKPGKAPKLCIYRTSNLASGVPSRFSGSGSGTDYTLTISSLQAEDFATYYCHQYHRSPPTFGQGTKLEIK	0.82 relative to the chimera on the same plate
Composite Human anti-CLEVER-1 antibody VH2/VK3 (antibody, human IgG4, V domains shown) VH: QVTLKESGPTLVKPTQTLTLTCSFSGFSLSTSGMGIGWIRQPSGKALEWLAHIWWDDDKRYNPALKSRLTISKDTSKNQVVLTMTNMDPVDTATYYCARHYGYDPYYAMDYWGQGTLVTVSS VL: EIVLTQSPGTLSLSPGERATMSCTASSSVSSSYLHWYQQKPGKAPKLCIYRTSNLASGVPSRFSGSGSGTDYTLTISSLQPEDFATYYCHQYHRSPPTFGQGTKLEIK	0.7 relative to the chimera on the same plate
Composite Human anti-CLEVER-1 antibody VH2/VK4 (antibody, human IgG4, V domains shown) VH: QVTLKESGPTLVKPTQTLTLTCSFSGFSLSTSGMGIGWIRQPSGKALEWLAHIWWDDDKRYNPALKSRLTISKDTSKNQVVLTMTNMDPVDTATYYCARHYGYDPYYAMDYWGQGTLVTVSS VL: QIVLTQSPGILSLSPGERATMSCTASSSVSSSYLHWYQQKPGKAPKLLIYRTSNLASGVPSRFSGSGSGTDYTLTISSLQAEDFATYYCHQYHRSPPTFGQGTKLEIK	0.79 relative to the chimera on the same plate
Composite Human anti-CLEVER-1 antibody VH1/VK2 (antibody, human IgG4, V domains shown) VH: QVTLKESGPTIVKPTQTLTLTCSFSGFSLNTSGMGIGWIRQPSGKALEWLAHIWWDDDKRYNPALKSRLTISKDTSKNQVVLTMTNMDPVDTATYYCARHYGYDPYYAMDYWGQGTSVTVSS VL: QIVLTQSPGTLSLSPGERATMSCTASSSVSSSYLHWYQQKPGKAPKLCIYRTSNLASGVPSRFSGSGSGTDYTLTISSLQPEDFATYYCHQYHRSPPTFGQGTKLEIK	1.37 relative to the chimera on the same plate
Composite Human anti-CLEVER-1 antibody VH2/VK5 (antibody, human IgG4, V domains shown, Named as a potential lead) VH: QVTLKESGPTLVKPTQTLTLTCSFSGFSLSTSGMGIGWIRQPSGKALEWLAHIWWDDDKRYNPALKSRLTISKDTSKNQVVLTMTNMDPVDTATYYCARHYGYDPYYAMDYWGQGTLVTVSS VL: EIVLTQSPGTLSLSPGERATLSCTASSSVSSSYLHWYQQKPGKAPKLLIYRTSNLASGVPSRFSGSGSGTDYTLTISSLQPEDFATYYCHQYHRSPPTFGQGTKLEIK	0.52 relative to the chimera on the same plate
Composite Human anti-CLEVER-1 antibody VH1/VK4 (antibody, human IgG4, V domains shown) VH: QVTLKESGPTIVKPTQTLTLTCSFSGFSLNTSGMGIGWIRQPSGKALEWLAHIWWDDDKRYNPALKSRLTISKDTSKNQVVLTMTNMDPVDTATYYCARHYGYDPYYAMDYWGQGTSVTVSS VL: QIVLTQSPGILSLSPGERATMSCTASSSVSSSYLHWYQQKPGKAPKLLIYRTSNLASGVPSRFSGSGSGTDYTLTISSLQAEDFATYYCHQYHRSPPTFGQGTKLEIK	1.17 relative to the chimera on the same plate
Composite Human anti-CLEVER-1 antibody VH1/VK5 (antibody, human IgG4, V domains shown) VH: QVTLKESGPTIVKPTQTLTLTCSFSGFSLNTSGMGIGWIRQPSGKALEWLAHIWWDDDKRYNPALKSRLTISKDTSKNQVVLTMTNMDPVDTATYYCARHYGYDPYYAMDYWGQGTSVTVSS VL: EIVLTQSPGTLSLSPGERATLSCTASSSVSSSYLHWYQQKPGKAPKLLIYRTSNLASGVPSRFSGSGSGTDYTLTISSLQPEDFATYYCHQYHRSPPTFGQGTKLEIK	1.13 relative to the chimera on the same plate
